Data reported in US20200181257A1 (Chugai, published 2020).

T1: human Fcγ receptor hFcgRIIa (R) (human, UniProt P12318 36-217)
T1 construct: also called FcγRIIa (type R); FcγIIA
T1 chain: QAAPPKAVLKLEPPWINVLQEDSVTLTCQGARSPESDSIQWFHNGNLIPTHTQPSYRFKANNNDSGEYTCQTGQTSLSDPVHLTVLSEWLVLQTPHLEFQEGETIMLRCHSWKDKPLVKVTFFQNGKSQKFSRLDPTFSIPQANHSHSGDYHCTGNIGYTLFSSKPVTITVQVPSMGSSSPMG

T2: human Fcγ receptor hFcgRIIb (human, UniProt P31994 43-217, limits assumed)
T2 construct: Construct used in the SPR assay is not described; also called FcγRIIb; FcγIIB
T2 sequence: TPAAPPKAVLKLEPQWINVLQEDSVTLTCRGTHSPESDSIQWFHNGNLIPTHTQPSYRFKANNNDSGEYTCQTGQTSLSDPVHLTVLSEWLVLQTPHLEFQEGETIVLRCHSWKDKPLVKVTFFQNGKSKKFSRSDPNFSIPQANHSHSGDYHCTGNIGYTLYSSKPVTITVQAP

T3: human Fcγ receptor hFcgRIIa (H) (human, UniProt P12318 36-217)
T3 construct: also called FcγRIIa (type H); FcγIIA
T3 sequence: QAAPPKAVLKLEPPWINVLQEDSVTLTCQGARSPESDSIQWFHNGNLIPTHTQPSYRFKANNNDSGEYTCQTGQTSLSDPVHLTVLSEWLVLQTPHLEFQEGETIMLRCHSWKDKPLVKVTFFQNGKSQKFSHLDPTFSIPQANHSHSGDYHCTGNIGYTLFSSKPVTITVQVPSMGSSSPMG


Tests used:
Assay in all cases: SPR, antibody captured on Protein A
[1] = target: T4, human Fcγ receptor hFcgRIa (human, UniProt P12314 16-292, limits assumed)
T4 construct: Construct used in the SPR assay is not described; also called hFcγRIa; FcγI
T4 sequence (P12314 16-292 limits assumed): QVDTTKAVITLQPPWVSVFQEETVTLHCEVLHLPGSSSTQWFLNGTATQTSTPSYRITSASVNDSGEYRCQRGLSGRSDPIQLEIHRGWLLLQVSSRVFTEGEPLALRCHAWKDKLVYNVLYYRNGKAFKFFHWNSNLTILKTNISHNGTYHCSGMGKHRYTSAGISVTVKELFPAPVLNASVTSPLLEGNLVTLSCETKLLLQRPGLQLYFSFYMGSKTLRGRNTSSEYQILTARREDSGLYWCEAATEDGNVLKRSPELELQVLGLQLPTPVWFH
Description: (§1) Furthermore, binding ability to hFcgRs was measured by the method described in Reference Example 3.
(§2) Interactions between antibodies and hFcgRs (hFcgRIa, hFcgRIIa(R), hFcgRIIa(H), hFcgRIIb, hFcgRIIIa(F), and hFcgRIIIa(V)) were analyzed using Biacore T100 (GE Healthcare). HBS-EP+(GE Healthcare) was used for the running buffer, and the measurement temperature was set at 25° C. Protein A (Invitrogen) was immobilized by the amino coupling method, and an antibody of interest was captured thereon. Then, hFcγR solutions diluted using the running buffer were injected to allow interaction with the captured antibody at a flow rate of 30 μL/min for five minutes for hFcγRIa, and at a flow rate of 5 μL/min for one minute for the other hFcγRs. […] Since the hFcγR binding level depends on the amount of captured antibodies, the FcgR-binding levels were corrected so that the capture level of each antibody would be 200 RU (resonance unit) for hFcgRIa and 1000 RU (resonance unit) for the other hFcgRs. The captured antibodies were washed by allowing 10 mM glycine-HCl (pH 1.5) to react for 30 seconds at a flow rate of 30 μL/min to recycle the chip for reuse.

[2] = target: T1, human Fcγ receptor hFcgRIIa (R)
Description: as §1, §2

[3] = target: T2, human Fcγ receptor hFcgRIIb
Description: as §1, §2

[4] = target: T5, human Fcγ receptor hFcgRIIIa (V) (human, UniProt P08637 17-208)
T5 construct: also called FcγRIIIa allotype V158; FcγIIIA
T5 sequence (P08637 other isoform, or with tags, fused parts or gaps limits assumed): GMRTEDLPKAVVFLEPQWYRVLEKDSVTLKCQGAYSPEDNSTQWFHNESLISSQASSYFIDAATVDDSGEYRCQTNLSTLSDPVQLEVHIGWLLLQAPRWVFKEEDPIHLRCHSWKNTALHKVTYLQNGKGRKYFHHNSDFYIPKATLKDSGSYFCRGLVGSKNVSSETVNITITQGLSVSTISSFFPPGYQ
Description: as §1, §2

[5] = target: T3, human Fcγ receptor hFcgRIIa (H)
Description: as §1, §2

Row | Binder | binding relative to G1 (=100) [1] | binding relative to G1 (=100) [2] | binding relative to G1 (=100) [3] | binding relative to G1 (=100) [4] | binding relative to G1 (=100) [5]
1 | TS21 (antibody, anti-IL6R IgG1, G1d with Q295M/K326A/A330Y (EU)) heavy: QVQLQESGPGLVRPSQTLSLTCTVSGYSITSDHAWSWVRQPPGRGLEWIGYISYSGITTYNPSLKSRVTMLRDTSKNQFSLRLSSVTAADTAVYYCARSLARTTAMDYWGQGSLVTVSSASTKGPSVFPLAPSSKSTSGGTAALGCLVKDYFPEPVTVSWNSGALTSGVHTFPAVLQSSGLYSLSSVVTVPSSSLGTQTYICNVNHKPSNTKVDKKVEPKSCDKTHTCPPCPAPELLGGPSVFLFPPKPKDTLMISRTPEVTCVVVDVSHEDPEVKFNWYVDGVEVHNAKTKPREEMYNSTYRVVSVLTVLHQDWLNGKEYKCKVSNAALPYPIEKTISKAKGQPREPQVYTLPPSRDELTKNQVSLTCLVKGFYPSDIAVEWESNGQPENNYKTTPPVLDSDGSFFLYSKLTVDKSRWQQGNVFSCSVMHEALHNHYTQKSLSLSP light: not shown | 107 | 113 | 121 | 124 | 
2 | TS23 (antibody, anti-IL6R IgG1, G1d with Q295L/K326A/A330Y (EU)) heavy: QVQLQESGPGLVRPSQTLSLTCTVSGYSITSDHAWSWVRQPPGRGLEWIGYISYSGITTYNPSLKSRVTMLRDTSKNQFSLRLSSVTAADTAVYYCARSLARTTAMDYWGQGSLVTVSSASTKGPSVFPLAPSSKSTSGGTAALGCLVKDYFPEPVTVSWNSGALTSGVHTFPAVLQSSGLYSLSSVVTVPSSSLGTQTYICNVNHKPSNTKVDKKVEPKSCDKTHTCPPCPAPELLGGPSVFLFPPKPKDTLMISRTPEVTCVVVDVSHEDPEVKFNWYVDGVEVHNAKTKPREELYNSTYRVVSVLTVLHQDWLNGKEYKCKVSNAALPYPIEKTISKAKGQPREPQVYTLPPSRDELTKNQVSLTCLVKGFYPSDIAVEWESNGQPENNYKTTPPVLDSDGSFFLYSKLTVDKSRWQQGNVFSCSVMHEALHNHYTQKSLSLSP light: not shown |  | 153 | 226 | 137 | 145
3 | TS26 (antibody, anti-IL6R IgG1, G1d with Q295L/K326S/A330Y (EU)) heavy: QVQLQESGPGLVRPSQTLSLTCTVSGYSITSDHAWSWVRQPPGRGLEWIGYISYSGITTYNPSLKSRVTMLRDTSKNQFSLRLSSVTAADTAVYYCARSLARTTAMDYWGQGSLVTVSSASTKGPSVFPLAPSSKSTSGGTAALGCLVKDYFPEPVTVSWNSGALTSGVHTFPAVLQSSGLYSLSSVVTVPSSSLGTQTYICNVNHKPSNTKVDKKVEPKSCDKTHTCPPCPAPELLGGPSVFLFPPKPKDTLMISRTPEVTCVVVDVSHEDPEVKFNWYVDGVEVHNAKTKPREELYNSTYRVVSVLTVLHQDWLNGKEYKCKVSNSALPYPIEKTISKAKGQPREPQVYTLPPSRDELTKNQVSLTCLVKGFYPSDIAVEWESNGQPENNYKTTPPVLDSDGSFFLYSKLTVDKSRWQQGNVFSCSVMHEALHNHYTQKSLSLSP light: not shown | 107 | 145 | 208 | 134 | 
4 | TS27 (antibody, anti-IL6R IgG1, G1d with Q295L/K326A/A330H (EU)) heavy: QVQLQESGPGLVRPSQTLSLTCTVSGYSITSDHAWSWVRQPPGRGLEWIGYISYSGITTYNPSLKSRVTMLRDTSKNQFSLRLSSVTAADTAVYYCARSLARTTAMDYWGQGSLVTVSSASTKGPSVFPLAPSSKSTSGGTAALGCLVKDYFPEPVTVSWNSGALTSGVHTFPAVLQSSGLYSLSSVVTVPSSSLGTQTYICNVNHKPSNTKVDKKVEPKSCDKTHTCPPCPAPELLGGPSVFLFPPKPKDTLMISRTPEVTCVVVDVSHEDPEVKFNWYVDGVEVHNAKTKPREELYNSTYRVVSVLTVLHQDWLNGKEYKCKVSNAALPHPIEKTISKAKGQPREPQVYTLPPSRDELTKNQVSLTCLVKGFYPSDIAVEWESNGQPENNYKTTPPVLDSDGSFFLYSKLTVDKSRWQQGNVFSCSVMHEALHNHYTQKSLSLSP light: not shown | 106 | 158 | 242 |  | 151
5 | TS28 (antibody, anti-IL6R IgG1, G1d with L234K/L235K/S239K/H268K/D270F/Q295M/Y296G/S298G/N325G (EU)) heavy: QVQLQESGPGLVRPSQTLSLTCTVSGYSITSDHAWSWVRQPPGRGLEWIGYISYSGITTYNPSLKSRVTMLRDTSKNQFSLRLSSVTAADTAVYYCARSLARTTAMDYWGQGSLVTVSSASTKGPSVFPLAPSSKSTSGGTAALGCLVKDYFPEPVTVSWNSGALTSGVHTFPAVLQSSGLYSLSSVVTVPSSSLGTQTYICNVNHKPSNTKVDKKVEPKSCDKTHTCPPCPAPEKKGGPKVFLFPPKPKDTLMISRTPEVTCVVVDVSKEFPEVKFNWYVDGVEVHNAKTKPREEMGNGTYRVVSVLTVLHQDWLNGKEYKCKVSGKALPAPIEKTISKAKGQPREPQVYTLPPSRDELTKNQVSLTCLVKGFYPSDIAVEWESNGQPENNYKTTPPVLDSDGSFFLYSKLTVDKSRWQQGNVFSCSVMHEALHNHYTQKSLSLSP light: not shown | 5.8 | 1.9 |  | 1.7 | 1.7
6 | TS29 (antibody, anti-IL6R IgG1, G1d with L234K/L235K/S239K/H268K/D270F/Q295M/Y296G/S298G/N325H (EU)) heavy: QVQLQESGPGLVRPSQTLSLTCTVSGYSITSDHAWSWVRQPPGRGLEWIGYISYSGITTYNPSLKSRVTMLRDTSKNQFSLRLSSVTAADTAVYYCARSLARTTAMDYWGQGSLVTVSSASTKGPSVFPLAPSSKSTSGGTAALGCLVKDYFPEPVTVSWNSGALTSGVHTFPAVLQSSGLYSLSSVVTVPSSSLGTQTYICNVNHKPSNTKVDKKVEPKSCDKTHTCPPCPAPEKKGGPKVFLFPPKPKDTLMISRTPEVTCVVVDVSKEFPEVKFNWYVDGVEVHNAKTKPREEMGNGTYRVVSVLTVLHQDWLNGKEYKCKVSHKALPAPIEKTISKAKGQPREPQVYTLPPSRDELTKNQVSLTCLVKGFYPSDIAVEWESNGQPENNYKTTPPVLDSDGSFFLYSKLTVDKSRWQQGNVFSCSVMHEALHNHYTQKSLSLSP light: not shown | 5.1 | 2.1 |  | 1.6 | 0.7
7 | TS35 (antibody, anti-IL6R IgG1, G1d with L234K/L235K/Q295M/Y296G/S298G/N325H (EU)) heavy: QVQLQESGPGLVRPSQTLSLTCTVSGYSITSDHAWSWVRQPPGRGLEWIGYISYSGITTYNPSLKSRVTMLRDTSKNQFSLRLSSVTAADTAVYYCARSLARTTAMDYWGQGSLVTVSSASTKGPSVFPLAPSSKSTSGGTAALGCLVKDYFPEPVTVSWNSGALTSGVHTFPAVLQSSGLYSLSSVVTVPSSSLGTQTYICNVNHKPSNTKVDKKVEPKSCDKTHTCPPCPAPEKKGGPSVFLFPPKPKDTLMISRTPEVTCVVVDVSHEDPEVKFNWYVDGVEVHNAKTKPREEMGNGTYRVVSVLTVLHQDWLNGKEYKCKVSHKALPAPIEKTISKAKGQPREPQVYTLPPSRDELTKNQVSLTCLVKGFYPSDIAVEWESNGQPENNYKTTPPVLDSDGSFFLYSKLTVDKSRWQQGNVFSCSVMHEALHNHYTQKSLSLSP light: not shown | 0.5 | 1.1 |  | 1.5 | 1.7
8 | TS38 (antibody, anti-IL6R IgG1, G1d with L234K/L235R/S239K/Q295M/Y296G/S298G/N325G (EU)) heavy: QVQLQESGPGLVRPSQTLSLTCTVSGYSITSDHAWSWVRQPPGRGLEWIGYISYSGITTYNPSLKSRVTMLRDTSKNQFSLRLSSVTAADTAVYYCARSLARTTAMDYWGQGSLVTVSSASTKGPSVFPLAPSSKSTSGGTAALGCLVKDYFPEPVTVSWNSGALTSGVHTFPAVLQSSGLYSLSSVVTVPSSSLGTQTYICNVNHKPSNTKVDKKVEPKSCDKTHTCPPCPAPEKRGGPKVFLFPPKPKDTLMISRTPEVTCVVVDVSHEDPEVKFNWYVDGVEVHNAKTKPREEMGNGTYRVVSVLTVLHQDWLNGKEYKCKVSGKALPAPIEKTISKAKGQPREPQVYTLPPSRDELTKNQVSLTCLVKGFYPSDIAVEWESNGQPENNYKTTPPVLDSDGSFFLYSKLTVDKSRWQQGNVFSCSVMHEALHNHYTQKSLSLSP light: not shown | 0.3 | 2.3 |  | 0.9 | 1.7
